In patent US20250092426, “CAS ENDONUCLEASES AND RELATED METHODS” (Flagship Pioneering Innovations VII, LLC, published 2025) one finds activity data, which are given here for 1 molecule.

The target of the series is T1, CasEnd-28 (synthetic construct).
T1 chain: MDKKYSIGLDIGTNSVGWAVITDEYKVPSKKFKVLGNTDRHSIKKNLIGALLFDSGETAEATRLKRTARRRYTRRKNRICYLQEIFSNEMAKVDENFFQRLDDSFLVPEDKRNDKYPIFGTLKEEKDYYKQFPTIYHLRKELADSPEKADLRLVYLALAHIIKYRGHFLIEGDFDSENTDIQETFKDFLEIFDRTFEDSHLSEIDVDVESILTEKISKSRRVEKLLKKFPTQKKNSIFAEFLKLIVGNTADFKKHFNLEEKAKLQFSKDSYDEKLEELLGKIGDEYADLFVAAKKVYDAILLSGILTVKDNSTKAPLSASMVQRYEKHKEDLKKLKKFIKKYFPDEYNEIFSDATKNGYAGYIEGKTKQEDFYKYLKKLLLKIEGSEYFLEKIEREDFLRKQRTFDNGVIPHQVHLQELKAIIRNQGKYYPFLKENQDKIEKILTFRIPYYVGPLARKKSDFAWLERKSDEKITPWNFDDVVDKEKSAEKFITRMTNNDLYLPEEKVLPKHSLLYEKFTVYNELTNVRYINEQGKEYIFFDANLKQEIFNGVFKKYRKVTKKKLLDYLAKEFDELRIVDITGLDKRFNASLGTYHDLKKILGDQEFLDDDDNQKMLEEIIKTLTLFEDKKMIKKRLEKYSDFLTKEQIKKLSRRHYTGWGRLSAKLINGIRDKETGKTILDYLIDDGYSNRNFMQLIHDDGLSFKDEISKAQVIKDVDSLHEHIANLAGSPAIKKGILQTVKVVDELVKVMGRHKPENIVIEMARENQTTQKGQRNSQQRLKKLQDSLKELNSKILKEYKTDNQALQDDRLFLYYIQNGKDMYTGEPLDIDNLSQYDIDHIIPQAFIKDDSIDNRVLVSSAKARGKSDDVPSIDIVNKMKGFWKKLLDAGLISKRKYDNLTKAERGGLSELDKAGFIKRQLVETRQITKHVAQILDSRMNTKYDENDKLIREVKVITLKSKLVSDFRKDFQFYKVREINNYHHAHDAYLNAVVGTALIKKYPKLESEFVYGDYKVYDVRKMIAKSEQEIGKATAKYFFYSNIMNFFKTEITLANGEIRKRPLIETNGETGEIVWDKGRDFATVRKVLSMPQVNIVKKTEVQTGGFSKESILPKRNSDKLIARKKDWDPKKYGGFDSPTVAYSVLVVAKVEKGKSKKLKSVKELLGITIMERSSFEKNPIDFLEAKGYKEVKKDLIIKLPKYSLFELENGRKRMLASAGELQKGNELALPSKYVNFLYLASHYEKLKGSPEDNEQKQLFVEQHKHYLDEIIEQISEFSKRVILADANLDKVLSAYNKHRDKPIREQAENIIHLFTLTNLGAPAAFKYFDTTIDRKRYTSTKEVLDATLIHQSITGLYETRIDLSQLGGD
Kind of series: cell_activity; +++; K562, second nick guide SEQ 380; PAM not stated. In outline:
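K562 cells (250,000) nucleofected with plasmids for the reverse transcriptase–Cas endonuclease fusion, template RNA introducing an SNP at endogenous HBB, and second nick guide RNA (250 ng each). Genomic DNA harvested at day 3; percent amplicons with intended edit measured by targeted amplicon sequencing.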

B1: HBB template RNA ; HBB protospacer (ssRNA ; dsDNA)
RNA: CAUGGUGCACCUGACUCCUGGUUUUAGAGCUAGAAAUAGCAAGUUAAAAUAAGGCUAGUCCGUUAUCAACUUGAAAAAGUGGCACCGAGUCGGUGCACGGCAGACUUCUCUGCCGGAGUCAGGUGC
DNA 1: CATGGTGCACCTGACTCCTG
DNA 2: CAGGAGTCAGGTGCACCATG
Consider B1, for which the activity is ≥ 100 % of reference.
